{"source": "the nanobody polyreactivity screen of Harvey et al. (2022)", "data": [{"assay": "yeast display, Sf9 membrane polyspecificity reagent, FACS + sequencing; frameworks hold sequencing errors", "in_short": "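Polyreactivity labels are assigned by the sorting gate from which each nanobody was recovered. The gates were low and high (top ~1%), set on anti-HA fluorescence for expression and streptavidin fluorescence for reagent binding. Before sorting, galactose-induced (36–48 hours) yeast display cells were stained for 1 hour at 4 °C with 10% biotinylated, detergent-solubilized Sf9 membrane reagent.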", "values": [{"sequence": "QLQLEESGGGLVQAGGSLRLSCAASGSTFSRNAMGWYRQAPGNERELVAAITIRGGSTSYADSVKGRFTISRENAKNTVYLQMNSLKPEDTAVYYCYRQSRNAGGYYWGQGTQVTVSS", "polyreactivity (PSR sort gate)": "low polyreactivity"}, {"sequence": "QLQLEESLVGLVQAGGSHPLSCAATGITFFTYTIGWYRQAPGKERELVARIRWDGGSTYYADSVKGRFTISRDNAKNTVYLQMNSLKPEDTAVYYCAADYPYSTYDYWGQGTQVTVSS", "polyreactivity (PSR sort gate)": "low polyreactivity"}, {"sequence": "QLQLQESGGGLVQAVVDLRQSCAESVNIFRDYIMGCYRQAPGKELEFVAGIDRGANTNFADSEKGRFTISRDNAKNTVYLQMNSLKPEDTAVYYCAVHTAIVPEFIYWGLGTQVTVSS", "polyreactivity (PSR sort gate)": "low polyreactivity"}, {"sequence": "QLQLQESGSGLEQAGGSLRLSCASSGYISLGDNMGWYRQAPGKEREFVATISVGGITYYVDSVKGRFTISRDIAKNTVYLQRNSLNPEDTAVYYCADLDIYYFRYYYWGQGTQVTVSS", "polyreactivity (PSR sort gate)": "low polyreactivity"}, {"sequence": "QLQLVESGAGLVKAGGSLRISSAASGYTFGRNTMGCYRQAPGKERELVAAITRRGGSTNYADSVKGRFTISRDNAKNTVYLQMNSLKQEDTAVYYCARDYRSYTGSYDSSYDYWGQGTQVTVSS", "polyreactivity (PSR sort gate)": "high polyreactivity"}, {"sequence": "QLQLVESGGGLDQAGGSLRLRCASSARIFSGYAIGWYIKAPGKERELVAAITSRSGSTYYADSVKGRFTISRDNAKNSVYFQMNSLKPEDTAVYYCAAEYVRFYWYTSDYWGQGTQVTVSS", "polyreactivity (PSR sort gate)": "low polyreactivity"}, {"sequence": "QLQLVESGGGLGQAGGSLRLSCAASGSIFDHYAMGWYRQAPGKERELVASMSKCGGSTYYADSVKGRFTISRDNAKNTVYLQMNSLKPEDTAVYYCASKQYYRGHNYWGQGTQVTVSS", "polyreactivity (PSR sort gate)": "high polyreactivity"}, {"sequence": "QLQLVESGGGLVKAGGSLRLSCADSGLIFRNNCMGGYRHAPRKERELVAAISNRGGSTYYADSVKGRFTISRDNAKNTVYLQMNSLKPEDTAVYDCNAVASYSQGGYRYDYWGQGTQVTVSS", "polyreactivity (PSR sort gate)": "high polyreactivity"}, {"sequence": "QLQLVESGGGLVQAGASLRLSCADSRRIFDYNVMGRYIQAPGKEREVVADINGSGGGTNYEDSVKGRFTISRDNAKNTVYLQMNILKPEDTAVYYCNADSYEYHVPYYDYRYDYWGQGTQVTVSS", "polyreactivity (PSR sort gate)": "low polyreactivity"}, {"sequence": "QLQLVESGGGLVQAGGRLRLSCAASGGIFQTNAMGWYRQAPGKERELVAAISRSAGRTYYADSVKGRFTISRDNAKNTVYLQMTSLKPEDTAVYYCNALRGRFRFDYWGQGTQVTVSS", "polyreactivity (PSR sort gate)": "high polyreactivity"}, {"sequence": "QLQLVESGGGLVQAGGSHRLSCAASGSIFTGYAMGRSRQAPGKQREFVAAISWSGSSTYYADSVKGRFTISRDNGKNTVYVQMNSLKPEDTAVYYCNAVKGWWGYYSSVDFDYWGQGTQVTVSS", "polyreactivity (PSR sort gate)": "low polyreactivity"}, {"sequence": "QLQLVESGGGLVQAGGSLRITCAASGSTFYCYSMACYRQAPGKERALVARISSSSGRTYYADSVKGRFTISRDNAKNTVYLQMNLLKPEDTAVYYCAKYVYGKFDGVRYSYDYWGQGTQVTVSS", "polyreactivity (PSR sort gate)": "low polyreactivity"}, {"sequence": "QLQLVESGGGLVQAGGSLRLSCAASGFIFGLYDMGWYREATGKERELVAAISWSGGSTYYADSVKGRFTISRDNAKNTVYLQMNSLKPADTAVYYCNKDLYADGQYNYDYWGLGTQVTVSS", "polyreactivity (PSR sort gate)": "low polyreactivity"}, {"sequence": "QLQLVESGGGLVQAGGSLRLSCAASGFNFPANAMGCYRQAPGKEREFVAAITRRGGSTYYADSVKGRFTISRDYAKNPVYLQMNSLKPEDTAVYYCATYDPARSTQGYDYWGQGTQVTVSS", "polyreactivity (PSR sort gate)": "high polyreactivity"}, {"sequence": "QLQLVESGGGLVQAGGSLRLSCAASGFTFSDYARGWYRQAPGKERELVAAINTSGGSTYYADSVKGRFTISRDNAKNTVYLQMNSLKPEDTAVYYCAAKYASLDRRRRKYDYWGQGTQVTVSS", "polyreactivity (PSR sort gate)": "high polyreactivity"}, {"sequence": "QLQLVESGGGLVQAGGSLRLSCAASGIIFDGYSRGWYRQAPGKEREFVAAITSGGGSTSYADSVKGRFTISRDYAKNTVYLQMNSLKPEDTAVYYCAARSNRFYVRQRYGYWGQGTQVTVSS", "polyreactivity (PSR sort gate)": "high polyreactivity"}, {"sequence": "QLQLVESGGGLVQAGGSLRLSCAASGLTFQYYAMGWYRQAPGKERELVAAISTSGGSTYYADSVKGRFTISRDNAKNTVYLQMNSLKPEDTAVYYCAARGPGYPRIWRKYGYWGQGTQVTVSS", "polyreactivity (PSR sort gate)": "high polyreactivity"}, {"sequence": "QLQLVESGGGLVQAGGSLRLSCAASGLTFQYYDMGRYRQAPGKERELVDVIRGSGTSTYYADSVKGRFTISRDNAKNTVYLQMNCLKPEDTAVYYCAAPYQYRRTGRVLGKYDSWGQGTQVTVSS", "polyreactivity (PSR sort gate)": "high polyreactivity"}, {"sequence": "QLQLVESGGGLVQAGGSLRLSCAASGLTICRYAMAWYRQAPGKEREFVATISQNGGRTYYADSVKGRFTISRDNAKNTVYLQMNSLKPEDTAVYYCAADDWRWGYDYWGQGTQVTVSS", "polyreactivity (PSR sort gate)": "high polyreactivity"}, {"sequence": "QLQLVESGGGLVQAGGSLRLSCAASGRIFEYYAMGWYRQAPGKERELVAAISWSGGSTYYADSVKGRFTISRDNAKNTVYLQMNSLTPEDTAVYYCARDLPYYSISRYDYWGLGTQVTVSS", "polyreactivity (PSR sort gate)": "high polyreactivity"}, {"sequence": "QLQLVESGGGLVQAGGSLRLSCAASGRIFQSYALGWYRQAPGKESELVAGIRAGGGRTYYADSVKGRFTISRDNAKNTVYLQMNSLKPEDTAVYYCATDFYPRYLLRTYRPYYYWGQGTQVTVSS", "polyreactivity (PSR sort gate)": "low polyreactivity"}, {"sequence": "QLQLVESGGGLVQAGGSLRLSCAASGRIFYVNAMGWYRPAPGKERELVAAISRSGSSTYYADSVKGRFTISRDNAKNTVYLQMNSLKPEDTADYYCAARYYGRSQHHFDYWGQGTQVTVSS", "polyreactivity (PSR sort gate)": "high polyreactivity"}, {"sequence": "QLQLVESGGGLVQAGGSLRLSCAASGRIFYYYTMGWYRQAPGKERELVARITGLTGRTYYADSVKGRFTISRDNAKNTVYLQMNSLKPEDTAVYYCNAVLGYYTYDYWGQGTQVTVSS", "polyreactivity (PSR sort gate)": "high polyreactivity"}, {"sequence": "QLQLVESGGGLVQAGGSLRLSCAASGRTFQIYAMGWYRQAPVNERELVARITGVGSTNYADSVKGRFTISRDNAKNTVYLQMNSLKPEDTAVYYCNKRDGNWEYDYWGQGTQVTVSS", "polyreactivity (PSR sort gate)": "low polyreactivity"}, {"sequence": "QLQLVESGGGLVQAGGSLRLSCAASGRTFSIYAMGWSRQATGKERELVAAIRWSGGSTYYADSVKGRFTISRDNAKNSVYLQMNSLKPEDTAVYYCATRSRGLKFDYWGQGTLVTVSS", "polyreactivity (PSR sort gate)": "high polyreactivity"}, {"sequence": "QLQLVESGGGLVQAGGSLRLSCAASGSIFAIYAMGWYRQAPGKERELVAAISDGGGTNYADSVKGRFTISRDNAKNTVYLQMNSLKPEDTAVYYCAADLGWSTYVSNGPKGYDHWGQGTQVTVSS", "polyreactivity (PSR sort gate)": "low polyreactivity"}, {"sequence": "QLQLVESGGGLVQAGGSLRLSCAASGSTFHYYDMGWNRKATGKERELVAAISSGGDSTYYADSVKGRFTISRDNAKNTVYLQMNSLKPEDTAVYYCAAAVYYGQSVWYYYWGQGTQVTVSS", "polyreactivity (PSR sort gate)": "high polyreactivity"}, {"sequence": "QLQLVESGGGLVQAGGSLRLSCAASGYTFYRYAMGWYRQAPGKERELVAAISSAGTTNYADSVKGRFTISRDNAKKTVYFQMNSLKPEDTAVYYCNKRGRNHNSLKYGYWGQGTQVTVSS", "polyreactivity (PSR sort gate)": "high polyreactivity"}, {"sequence": "QLQLVESGGGLVQAGGSLRLSCAATGYISNAMGWYRQPPGKERELVAAISRSGGSTYYADSVKGRFTISRDNAKNTVYLQMNSLKPEDTAVYYCAADYTYHDRRLDYWGQGTQVTVSS", "polyreactivity (PSR sort gate)": "low polyreactivity"}, {"sequence": "QLQLVESGGGLVQAGGSLRLSCADSGSTFRYNVMGWYRQAPGNETQLVAAIRDSGDRTYYADSVKGRFTISRDNAKNTVYLQMNSLKPEDTAVYYCNARWQEPLKYDYWGQGTQVTVSS", "polyreactivity (PSR sort gate)": "low polyreactivity"}, {"sequence": "QLQLVESGGGLVQAGGSLRLSCAPSGRILWVNAMGWYRQAPGKERELVAAISLSGGRTYYADSVKGRFTISRDNAKNTVYLQMNSLKPEDTAVYYCAARTVNYYYTTGDYWGQGTQVTVSS", "polyreactivity (PSR sort gate)": "low polyreactivity"}, {"sequence": "QLQLVESGGGLVQAGGSLRLSCAPSGRTFVGNAMGWYRQAPGKERELVAAITLSDGSTYYADSVKGRFTISRDNAKNTVYLQMNSLKPEDTAVYYCATQPLYWYDVVVNIRGPSGYWGQGTQVTVSS", "polyreactivity (PSR sort gate)": "low polyreactivity"}, {"sequence": "QLQLVESGGGLVQAGGSLRLSCAPSGSIFLNYAMGWYRQAPGKERELVATIRRRGGSTYSADSVKGRFTISRDNAKNTVYLQMNSLKPDDTAVYYCNAEQLVSRARPYDYWGQGTLVTVSS", "polyreactivity (PSR sort gate)": "high polyreactivity"}, {"sequence": "QLQLVESGGGLVQAGGSLRLSFAASSIIPYNAMGWYRQAPVNEREFVAAISVRGVITYYADSVKGRFTISRDNAKNTVYLQMNSLKPEDTAVYDCAADYQPAGVDYWGQGTQVTVSS", "polyreactivity (PSR sort gate)": "low polyreactivity"}, {"sequence": "QLQLVESGGGLVQAGGSLRLSSAASGSIFIYYAMGWYRQAAGKERELVAAISYSDGDTYYADSVKGRFTISRDNAKNTVYLQMNSLKPEDTAVYYCAAEVPQYYDVGWEDYWGQGTQVTVSS", "polyreactivity (PSR sort gate)": "high polyreactivity"}, {"sequence": "QLQLVESGGGLVQAGGSLSLSCAASGRTVYGYSMGWYRQAPGKERELVAAISKTGGSTYYADSVKGRFTISRDNAKNTVYLQMNSLKPEDTAVYYCNARDTSGFTRFSSKYDYWGQGTQVTVSS", "polyreactivity (PSR sort gate)": "high polyreactivity"}, {"sequence": "QLQLVESGGGLVQAGGSLSLSCAASGSIFGYNAMGWYRPAPGKEREFVAAISFRGTSTYYADSVKGRFTISRDNAKNPVYLQMYSLKPEDTAVYYCAARSYDGDHYKHGYWGQGTQVTVSS", "polyreactivity (PSR sort gate)": "high polyreactivity"}, {"sequence": "QLQLVESGGGLVQEGGSLRISCDASGSTFDDNAMACYRQAPGKERELVAGIDVSGGSTYYADSVKGRFTISRDNAKKTVYLQMTSLTPEDTAVYFCAKGRPGHRTSSVNFNYWGQGTQVTVSS", "polyreactivity (PSR sort gate)": "low polyreactivity"}, {"sequence": "QLQLVESGRGLVQAGGSLRLSCAASGSIFYSNAKGWYRQATGKERELVATITWSGGRTYYADSVKGRFTISRDNGKNSVYLQMNRLKPEDTAVDYCAVVDRHQPYGRQLDYWGQGTQVTVSS", "polyreactivity (PSR sort gate)": "low polyreactivity"}, {"sequence": "QLQLVESGRGLVQAGGSLRLSCAASVRTFTCYTMGSYRQAPGKEREFVAAIRKSGGSTYYADSVKGRFTISRDNAKNTVYLQMNSLKPEDTAVYYCAAERLYGYWKYIGYDWGQGTQVTVSS", "polyreactivity (PSR sort gate)": "high polyreactivity"}, {"sequence": "QLQLVESGRGLVQAGGTLRLSCAASGRIFGKNAIGSYRQAPGKEMELVAAITGSGGRTYNADSVKGRFTISRDNAKNTVYLQMNSMKPEDTAVYYCAVRVTSYYRTMDYWGQGTQGTVSS", "polyreactivity (PSR sort gate)": "low polyreactivity"}, {"sequence": "QLQLVESGVGLVQAGGSLRLSCAASGSILPVYPMGWYRQAPGKERELVAAISVSGGSTSYADSVKGRFTISRDNAKNTVYLQMNSLKPEDTAVYYCAARYRYSYGYWGQGSQVTVSS", "polyreactivity (PSR sort gate)": "high polyreactivity"}, {"sequence": "QLQLVETGGGLVQAGGSLRLSCAASGFTLYSYAMGWYRQDPGKEREFVADGSTYYADSVKGRFTISRDNAKNTVYLQINSLKPEDTAVYYCAADPWIYVQSYGYWGQGTQVTVSS", "polyreactivity (PSR sort gate)": "low polyreactivity"}]}]}
